Assay results taken from patent US20240307488A1, “ANNEXIN TO INHIBIT BACTERIA” (priority 2023, published 2024).

Tests used:
E. coli strain BL21(DE3) = experiment: dark field light microscopy of antibiotic-driven bacterial filament formation and filament length measurement; assay type: cell-based
From the text: Use of dark field light microscopy to monitor antibiotic-driven bacterial filament formation.
In bright field light microscopy, the filaments formed by bacteria in the presence of beta-lactam antibiotics are difficult to distinguish from “floaters” in the eyes of the microscopist. […] The light micrographs provided herein were all obtained by darkfield light microscopy. […] Therefore, transmission electron microscopy was also used in some cases for visualization of cell ultrastructure.
Darkfield light microscopy of bacterial cultures was performed with a Nikon Labophot microscope (Nikon Instruments, Melville, New York) with a dark field condenser (dry) and an e plan40×/0.65 Nikon objective.
of the inducer IPTG (Isopropyl β-d-1-thiogalactopyranoside). However, protein expression from this plasmid can have significant baseline expression without the inducer. […] Accordingly, all of the imaging and experiments described in this report were performed without adding the inducer, which avoided these problems.
Five ml precultures in LB medium with 200 μg/ml ampicillin were seeded with colonies from LB-ampicillin agar plates and incubated on a rotator overnight at 34 degrees C. […] Slides were rested for 2 to 5 minutes to allow the cells to settle before observation. Nonetheless, the cells were not tightly adherent to the slides and occasionally some cells moved slightly during imaging resulting in a double image. Cultures were checked and micrographs taken at 5 to 20 min intervals for up to 4 hours. Occasionally during this period, the culture tubes were briefly inserted into a Genesys 20 spectrophotometer (Thermospectronic, Rochester, NY) and the absorbance at 600 nm was recorded to measure culture density. The culture tubes have a circular cross section with an inside diameter of 1.3 cm, so the absorbances recorded were approximately 30% higher than would have been measured in a square cuvette with a one cm pathlength.
For preparation of the micrographs in FIGS. 1 through 3 comparing the morphology of the different transformed strains, each test culture (5 ml) was inoculated at the same time with 50 ul of the saturated overnight preculture. For display in the Figures, photographs taken after approximately the same period of growth of each of the parallel cultures were obtained when 20 μl samples provided a microscope image containing a broad sampling of the cell morphologies seen without overcrowding.
The lengths of the bacterial filaments were measured using the Image J program (NIH) with the dark field light micrographs. […] The longest dimension of each cell or filament was taken to represent the “length” for the analysis. Forty to 90 filaments were measured from each of the sub-images in FIGS. 1 and 2.

[1] = test system: bovine chromaffin granule (secretory vesicle) membrane; conditions: from Nelson and Creutz [17], Table 4; cited from earlier work
E. coli BL21(DE3) cells = experiment: electron microscopy of cells expressing wild type or mutant annexins A4; assay type: cell-based; conditions: 200 μg/ml ampicillin and 4 μg/ml piperacillin; FIG. 4
From the text: E. coli samples selected for ultrastructural analysis were processed for electron microscopy using technical support and instrumentation in the Advanced Microscopy Facility at the University of Virginia School of Medicine. The following reagents for electron microscopy were obtained from Electron Microscopy Sciences (Hatfield, PA): sodium cacodylate, propylene oxide, EPON, uranyl acetate, and lead citrate.
One ml samples of cell cultures were pelleted in a microcentrifuge and resuspended in 2.5% glutaraldehyde in 10 mM phosphate buffer (pH7.4) and held overnight at 4 degrees C. The cells were then washed in 0.1 M sodium cacodylate, 2 times, 10 minutes per wash. Then the samples were completely immersed in 1% osmium tetroxide (OsO4) in 0.1 M sodium cacodylate and incubated at room temperature for 1 hour. Following this incubation, the samples were rinsed in 0.1 M sodium cacodylate, 2 times, 10 minutes per wash. Next samples were dehydrated sequentially in 50%, 70%, 95%, 100% ethanol for at least 10 minutes each. Samples were then rinsed in 1:1 ethanol:propylene oxide and incubated for 10 min in the same mixture, then for 10 min in 100% propylene oxide. Following removal of the final propylene oxide, samples were incubated in a 1:1 propylene oxide:EPON mixture overnight, followed with 1:2 propylene oxide:EPON and 1:4 propylene oxide:EPON, 4 hours each. […]

[2] = E. coli expressing construct, grown in ampicillin (200 μg/ml), FIG. 1
[3] = ampicillin (200 μg/ml) plus piperacillin (4 μg/ml), FIG. 2

Molecule	propensity to promote the formation of long, stable filaments (E. coli strain BL21(DE3); compared with ampicillin and piperacillin)	concentration of calcium leading to half-maximal binding to a biological membrane [1]	AVG μm: average length of the measured filaments (E. coli strain BL21(DE3); [2]) [μm]	MAX μm: length of the longest filament in the micrograph (E. coli strain BL21(DE3); [2]) [μm]	optical density (A600) of the cultures with or without the annexin (E. coli strain BL21(DE3); ampicillin (200 μg/ml))	promotion of cytokinesis (grouping of constructs) (E. coli strain BL21(DE3); ampicillin (200 μg/ml))	filament formation (E. coli strain BL21(DE3); ampicillin (200 μg/ml) plus cephalexin (25 μg/ml))	promotion of cytokinesis (grouping of constructs) (E. coli strain BL21(DE3); ampicillin (200 μg/ml) plus piperacillin (4 μg/ml))	AVG μm: average length of the measured filaments (E. coli strain BL21(DE3); [3]) [μm]	MAX μm: length of the longest filament in the micrograph (E. coli strain BL21(DE3); [3]) [μm]	stability of the filaments after tenfold dilution of cephalexin (E. coli strain BL21(DE3); cephalexin reduced from 25 to 2.5 μg/ml after 3 hours 20 minutes, observed for two hours)	relative abundance of short cells and filamentous forms in electron micrographs (E. coli BL21(DE3) cells)
CC1=C(C(=O)O)N2C(=O)[C@@H](NC(=O)[C@H](N)c3ccccc3)[C@H]2SC1 [cephalexin, reference compound]	greatest propensity to promote the formation of long, stable filaments	–	–	–	–	–	–	–	–	–	–	–
bovine annexin A4 (protein, UniProt P13214 2-319, looked up) Annexin A4: AAKGGTVKAASGFNAAEDAQTLRKAMKGLGTDEDAIINVLAYRSTAQRQEIRTAYKTTIGRDLMDDLKSELSGNFEQVILGMMTPTVLYDVQELRKAMKGAGTDEGCLIEILASRTPEEIRRINQTYQLQYGRSLEDDIRSDTSFMFQRVLVSLSAGGRDESNYLDDALMRQDAQDLYEAGEKKWGTDEVKFLTVLCSRNRNHLLHVFDEYKRIAQKDIEQSIKSETSGSFEDALLAIVKCMRNKSAYFAERLYKSMKGLGTDDDTLIRVMVSRAEIDMLDIRANFKRLYGKSLYSFIKGDTSGDYRKVLLILCGGDD	–	5.0×10^−6 M	5.279	15.03	similar	promoted cytokinesis	long filamentous cells were formed	promoted cytokinesis	5.052	9.472	completely stable	number of short cells exceeds the number of extended filamentous forms
